# Data reported in the DeepSol protein solubility set.
# Experiment: soluble on expression in E. coli; label from the status in PepcDB or PDB records
row,Sequence,soluble on expression in E. coli
1,AALGPSSQNVTEYVVRVPKNTTKKYNIMAFNAADKVNFATWNQARLERDLSNKKIYQEEEMPESGAGSEFNRKLREEARRKKYGIVLKEFRPEDQPWLLRVNGKSGRKFKGIKKGGVTENTSYYIFTQCPDGAFEAFPVHNWYNFTPLARHRTLTAEEAEEEWERRNKVLN,soluble
2,MLKPLLAIFMISSALSIPLNRSDFLENDHVELMPLEKDGELNDKFRQEMIFSHNLDPSDSKQLSESIKEMFKKTDVNDDGFLTAGELKQQIRKNMEEHLEKSKNDSEIFFDIVDTNKDGSIVWEEFEPHFSKMHEKDHSDSELMDVHTEDPHRVDDEKRMFNRSDITRDGRLDRMEWHIFLHPEYSAQGLVEIVNDLMGVYDKNNDEVVSQDDFVNGIPGTVDELNPEFENMEKLEKERRLREFNEEIDENSDGKATFRELYDYVDPQNFRLASKEVNDIMMLTDANNDEKLSLEELLERDWLLARSSLLSARSSLHDEM,not soluble
3,MSLDLSLNNLYSISTVELIQAFANTPASVTSLNLSGNSLGFKNSDELVQILAAIPANVTSLNLSGNFLSYKSSDELVKTLAAIPFTITVLDLGWNDFSSKSSSEFKQAFSNLPASITSLNLRGNDLGIKSSDELIQILAAIPANVNSLNLRGNNLASKNCAELAKFLASIPASVTSLDLSANLLGLKLEHHHHHH,not soluble
4,MGSDKIHHHHHHEISDGVVRIGLLTDMSGAFSQFSGHGSVVAAQMAIDDCLAAECKGMKIELLSADHQNKTDIALAKAREWADVNKVDAYADMVNSAVALAMQSLAVQKKKAALFAGGPLRISNEDCQPEYAVQWMWDTYSQTAAAIKGLAKPKQGWYFITVDYAYGNAAVAEARKQLEAIGAHTVGESKHPLNSNDMSSQIIAAQQSKADVVAFANSGADSANAIKTASEFKLGAKKLQAAFFPTIYEIKGIGLAQAKGLRFPESFYWDIDDGTRRFSKRFMDIYKKGPPSLTHAGVYSSVYHYLKAVAATKSDDAQTVIRKMHELPIRDDVVRNPKLRPDGRMVHDYYYFRVKSPQESKGPWDLYALEKTLPGDEVFLPVAESQCRVFKGQAK,not soluble
5,MRIMGLDVGSKTVGVAISDPLGFTAQGLEIIKIDEEKAEFGFTRLEELVKQYQVEQFVIGLPKNMNNTNGPRVDASITYGNHIEHLFGLPVHYQDERLTTVEAERMLIEQADISRGKRKKVIDKLAAQLILQNYLNRNFLEHHHHH,soluble
6,MSKRPVIESEKPAWHDEDDDNMVVAVPKKVKMTMRVELKRTTDEEHGELDSKEYVGRLQEAFRKRHGGTPKWAKAAAGDEEEGSLLKTAAGYLAKDVNLPKTTIHTTLIKDFNIGHRYTRGITVVKFHKTRPVLIVADQGGNVQLFKVSREVKKDRFLQSANFSKFPIDSLEIADKGHSVICSSSRKEYLMQYNMETREVTQLKPPNTVPKQGIRLFAISHDSQFLAIAGHNSHIYVLHATSMEHITTISLPANASEIKFFPSHSREIWIICETGQIVIANIGLPGTKSSQHTFTDDGAVHGTTLAISQHGDYFATGSDTGIVNVYSGNDCRNSTNPRPLFNVSNLVTAVSSIAFNSDAQLMAICSNVKDNHLRLVHVASQTTFKNFPERNGKVTHARCVEFSPNGGYMAVGNDDGRLHVFEIHHFTDY,not soluble
7,MRGRAVSRNAIIGIVHRNAKLAAIGFGRAKSSPASEGSSTYTPEEIKLVADCLKAKRNYVQIAQRLALKSGRIISRFGVKSLIRRTPELNEIGFRGKKGRPSDKKKAAPGQLPGRLFIAATADIDRDPSAFDYLTRPAVRALASQPHFAAMRFVDCLPARCRAPLSYDLEERPGPDMLCCGHLAMPSRSYCAYHEIRLTARKAEFIAEAALEHHHHHH,not soluble
8,MEAIKDKERKERRDKKLAIANLAAKQKREKKKQQKNGAELAARARKAKAEKAKTSEPPAQGVVTRAAAQKAREAAQAANHQ,not soluble
9,MSLSVSLVYRKARPDDWKGILELYNSLSDDDLYLRFFTFHKLTEEEARKIADTKEHYTVIAEINGKIVGEASIYFDGEFAVVVHPDYRRLGIGTELVKRLIEFAKKNGIKKVRFYTLPENYPMIKIGKKLGFKIIEREDEVYAYLDLTNENVILEKT,soluble
10,MASRGKTETSKLKQNLEEQLDRLMQQLQDLEECREELDTDEYEETKKETLEQLSEFNDSLKKIMSGNMTLVDELSGMQLAIQAAISQAFKTPEVIRLFAKKQPGQLRTRLAEMDRDLMVGKLERDLYTQQKVEILTALRKLGEKLTADDEAFLSANAGAILSQFEKVSTDLGSGDKILALASFEVEKTKK,not soluble
11,MGHHHHHHSHMEDLLDLDEELRYSLATSRAKMGRRAQQESAQAENHLNGKNSSLTLTGETSSAKLPRCRQGGWAGDSVKASNGTQTGKQQLDLNACYHKTHHRNLGLASLEEADIPIIPDLEEVQEEDFVLQVAAPPSIQIKRVMTYRDLDNDLMKYSAIQTLDGEIDLKLLTKVLAPEHEVREDDVGWDWDHLFTEVSSEVLTEWDPLQTEKEDPAGQARHT,soluble
12,MIEYAALKFNVVSDPMSETAKKVIVGMSGGVDSSVSAWLLQQQGYQVEGLFMKNWEEDDGEEYCTAAADLADAQAVCDKLGIELHTVNFAAEYWDNVFELFLAEYKAGRTPNPDILCNKEIKFKAFLEFAAEDLGADYIATGHYVRRADVDGKSRLLRGLDSNKDQSYFLYTLSHEQIAQSLFPVGELEKPQVRKIAEDLGLVTAKKKDSTGICFIGERKFREFLGRYLPAQPGKIITVDGDEIGEHQGLMYHTLGQRKGLGIGGTKEGTEEPWYVVDKDVENNILVVAQGHEHPRLMSVGLIAQQLHWVDREPFTGTMRCTVKTRYRQTDIPCTVKALDDDRIKVIFDEPVAAVTPGQSAVFYNGEVCLGGGIIEQRLPLPV,not soluble
13,MPIVNQSSLVPYSAEQMYQLVNDYEKYPQFLSGCIGAKTISRGNNELEAELQIQKLGISQSFSTHNKMLPNERIEMKLVNGPFRQLQGAWNFQPFDEQSCKISLYLEFEFSNPVVGMVFGKIFNELTLKMVNAFKQRAKEVYGVLEHHHHHH,soluble
14,MGSDKIHHHHHHMEFVFGKKVFQSEVRKASDLKPVLAFPEALKEDFDAYYMFRDSFKTDEEAEIIRNAGLRYDYTVIPPNNIGGESIKTYGHYHPEVVRGFTYPEVYQVLEGEALFILQKPSNGKIEDVIVVEGKKWDTVIIPPNYGHVTINPTESDLITANWVCRNFSSIYEPYTKRRGACYYYINGEWVRNRNYDDAPEIRFAKPKNVLDVKGDMYDLVYTIEKLEFLVKPHEHQEIFENAFEVV,not soluble
15,MIKVDQHYFELIENYRECFNEEQFIARYSDILDKYDYIVGDYGYDQLRLKGFYKDSNKKAEMSKRFSNIQDYIFEYCNFGCPYFVLRHLSKQEVKKLIEEVHPSDVIDDDNKLQDVKIKPTIQDTEHLEHHHHHH,not soluble
16,MGSDKIHHHHHHMKVLLINGSPNQYGCTYTALNEITKVLSKHDIKTEILYLGKETIPGCISCASCFETGKCIRNDKVNELIEDLDNIDGIIIGSPVYFSSATGQLTSFLDRLFFIAGSRMATKLGASVVSCRRGGASATFDQLNKYFSISNMPIVSSQYWNQVHGFTPEDVMKDEEGLQTMRTLGENMAWLLKCISAGKKAGIKEPQYEETIMTNFIK,not soluble
17,MGSDKIHHHHHHMSKIGETPLDMGLKDAIIGIFIWNKEKGIFEPFENRLRKKARALLEYYTDLANDELKPYVISKTIIDNVVDEIKDKTLIPLPNEPLRVAFPNCTLEWKISHGRYVPSFVLAEERTPEHFAFHYIPHKIHLEELVKINEEVLSARDIPIDLIEDLARRLCPKSLEVFKQWANEKWVTLFEIIGYTLFPKIEFRKAFMILGPRGTGKSTFINLIKKLLGRGNVVNIPLHILFGDKNRFVLAELYHKLVNAVSETKEYNLDDMDTLKVLTGGDRITADVKFKDPITFTPYAKLVIASNKPPTIRDKNDMAFWHRWLIIEFPNQFEDNTAWGDKTFTEDELEGILTVSILAFSRVLLHGKFDFEQTEEEVRGIWLSTIDYVYKFVKEKLKHGEIMITKNADDYVRVKELYRMYLEYCSTNGYNATTYKGFVRRLRDYFNLTVVMKNVEGKRFRAVVGIKINTVQTNETTGGDYGEFLNYILKNNHMIKEFADLVRDFGSTEKANVFIDFCTKKNMCFSRGIDAWEISIQPRGFSFL,not soluble
18,TASIGAAAILGAPIMHDFCHISLSDLMTPWEVIEKRLRLAAEADFVICLYNPRSKGRSEHLSKAFKIMGEFKGGDTPVGVVKDVGREKEEKFVCTFENMDFEKVDMTTMVIIGNKSTY,not soluble
19,EVPTIDGRAKIRIEAGTQPGKMLRLRNKGLPSVNGYGMGDQLVNVNVYIPESIDAKDEQAIAAMENSDSFKPTDAARKDIDKKYREMLD,not soluble
20,MWLLQLMQQQHSIDMMKKQGLKLEAQDLYNPNGVSLKDAVGIFGGGCTGEIISPEGLILTNHHCGYSSIQQHSSVEHDYLTDGFWATSRDQELPTPGLKFTFIERIEDITDIVNAKIAAKEITESQSFTGAFLEGLAKELYEKSDLKDKKGIVPQALPFYAGNKFYLFYKKIYPDVRMVAAPPSSVGKFGGETDNWMWPRHTGDFSMFRIYADANGEPAEYSASNTPLKTKKHLSISIKGLKEGDYAMIMGFPGRTSRYLTVSEVKERMESTNEPRIRIRGARLAVLKEVMNASDKIRIQYANKYAGSSNYWKNSIGMNKAIIDNDVLGTKAEQEAKFAEYAKAQNNTEYANVVKKIDDLVAQTAPLNYQLTCLTEVFFGAIEFGNSMLTKTREALVDKNDSLIKVRLEGLKENFKSIHNKDYDHEVDRKVAKALLPLYAEMIPANQRPAIYKVIEQKYKGDYNKFVDDMYDKSIFANQANFDKFLKKPTVKAIDEDLALQYAQSKYDQYGNLLDQLKELDKELALLHKTYIRGLGEMKLPVPSYPDANFTIRLTYGNVKPYDPKDGVHYNYYTTTKGILEKENPEDREFVVPAKLKELIEKKDYGRYALPNGDMPVCFLSTNDITGGNSGSPVLNENGELIGCAFDGNWESLSGDINFDNNLQRCINLDIRYVLFILEKLGNCGHLINEMTIVE,not soluble
21,AHHHHHHGSEFNIIIAGVGGQGGLTLSRIIGSAAMVEGYRVRIGETLGMSQRYGSVLSYLRFGDSVYSPLIEEGKANLMLALEPVEALRNAAFLGKGSYAIVNAYPIHTATTLVGKEKYPSLEEIKEALEKICRVEMMNFQKEADLINPRTTGVLMLGYAQGKGLLPLKKESIIEGIRLTLREKLWEINFKAFERGRELAKHVCCDV,soluble
22,MAHHHHHHMMSADPNSFEAIRPKLTAQTLQDIEGLDPQKYGFGREECCGPIPTKIIGSMSLREHIFLNTRMPAREWDKRTENVPGFKELSQRVKHALPDASFTVSHLDQDTEDSILHCKVDDDKKAVIITQYSSVSEPYELPWEVKGTLAVDRSGEYFIFVCSHFTRDARCGYCGSVLIDLFRHALLEKMGAGGTARVTVCSCSHVGGHVYAGNVIIYSRHGGICYGLFKPEDVLPVVDAIAEDKGAIPESLRNRIRGQMGSNAS,soluble
23,MYHVFFNRRPTRPRLPRALYEQLAALPLNTEVNVHTTNETHYNALFLGFEPRTNNVSLLVDRFYKDGGRSLAIDATTITAIDLPVSMRPASSADSDDEEE,not soluble
24,GPLGSPEFPGMSKVFIATANAGKAHDADIFSVSACNSFTVSCSGDGYLKVWDNKLLDNENPKDKSYSHFVHKSGLHHVDVLQAIERDAFELCLVATTSFSGDLLFYRITREDETKKVIFEKLDLLDSDMKKHSFWALKWGASNDRLLSHRLVATDVKGTTYIWKFHPFADESNSLTLNWSPTLELQGTVESPMTPSQFATSVDISERGLIATGFNNGTVQISELSTLRPLYNFESQHSMINNSNSIRSVKFSPQGSLLAIAHDSNSFGCITLYETEFGERIGSLSVPTHSSQASLGEFAHSSWVMSLSFNDSGETLCSAGWDGKLRFWDVKTKERITTLNMHCDDIEIEEDILAVDEHGDSLAEPGVFDVKFLKKGWRSGMGADLNESLCCVCLDRSIRWFREAGGK,soluble
